Data as given in PMC11077940.
Where two headings read alike, the source gives them in different places.

Assays:
[1] = target: ATP hydrolysis-deficient DctD, DctD_(H216R), prepared as a dephosphorylated form (d-DctD_(H216R)) (Vibrio vulnificus); assay: SEC; d-DctD_(H216R) (alkaline phosphatase-treated) and d-IIA^Glc in 50 mM Tris-HCl pH 8.0, 20 mM KCl, 50 mM MgCl2, 100 mM NaCl applied to Superdex 200 Increase 10/300 GL; fractionated multimers used for the ATPase assay
[2] = target: ATP hydrolysis-deficient DctD, DctD_(H216R), prepared as a dephosphorylated form (d-DctD_(H216R)) (Vibrio vulnificus); assay: as above; remark: listed apart in the source
[3] = target: phosphorylation-deficient DctD (DctD_(D57Q)) of Vibrio vulnificus (Vibrio vulnificus); assay: SEC; GPC of mixtures of d-IIA^Glc and DctD_(D57Q) (20 µM each; also 5 µM + 20 µM and 20 µM + 5 µM); Superdex 200 Increase 10/300 GL, running buffer 50 mM Tris-HCl pH 8.0, 20 mM KCl, 50 mM MgCl2, 300 mM NaCl; fractions analysed by SDS-PAGE with densitometry against known amounts of each protein
[4] = target: phosphorylation-deficient DctD (DctD_(D57Q)) of Vibrio vulnificus (Vibrio vulnificus); assay: SEC; GPC of recombinant DctD_(D57Q) alone; Superdex 200 Increase 10/300 GL, running buffer 50 mM Tris-HCl pH 8.0, 20 mM KCl, 50 mM MgCl2, 300 mM NaCl, 0.4 mL/min; size from a regression of standard proteins

ATP hydrolysis-deficient DctD, DctD_(H216R), prepared as a dephosphorylated form (d-DctD_(H216R)) (natural protein)
stoichiometry N [1]: 12
stoichiometry N [2]: 2

dephosphorylated form of the glucose-specific enzyme IIA (d-IIA^Glc) (natural protein)
stoichiometry N [3]: 1 molar ratio

phosphorylation-deficient DctD (DctD_(D57Q)) of Vibrio vulnificus (natural protein)
stoichiometry N [4]: 2
